Results published in publication PMC3518268 (Science (New York, N.Y.), 2009).

T1: pseudokinase domain of STRADα (residues 59-431) (human, UniProt Q7RTN6 59-431)
T1 sequence (looked up): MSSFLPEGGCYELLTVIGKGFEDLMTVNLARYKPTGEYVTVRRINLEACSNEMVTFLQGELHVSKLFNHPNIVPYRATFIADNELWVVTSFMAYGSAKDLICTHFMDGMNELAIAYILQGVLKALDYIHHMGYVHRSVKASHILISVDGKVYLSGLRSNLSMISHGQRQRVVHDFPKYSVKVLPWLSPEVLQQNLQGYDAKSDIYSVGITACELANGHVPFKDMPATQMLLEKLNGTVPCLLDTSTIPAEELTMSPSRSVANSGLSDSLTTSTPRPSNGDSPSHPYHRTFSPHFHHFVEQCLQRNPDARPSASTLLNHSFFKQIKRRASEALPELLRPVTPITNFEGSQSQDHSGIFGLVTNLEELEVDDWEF

B1: LKB1 kinase domain (residues 43-347), catalytically inactive mutant Asp194Ala (domain or fragment, human, UniProt Q15831 43-347, looked up)
chain: AKLIGKYLMGDLLGEGSYGKVKEVLDSETLCRRAVKILKKKKLRRIPNGEANVKKEIQLLRRLRHKNVIQLVDVLYNEEKQKMYMVMEYCVCGMQEMLDSVPEKRFPVCQAHGYFCQLIDGLEYLHSQGIVHKDIKPGNLLLTTGGTLKISALGVAEALHPFAADDTCRTSQGSPAFQPPEIANGLDTFSGFKVDIWSAGVTLYNITTGLYPFEGDNIYKLFENIGKGSYAIPGDCGPPLSDLLKGMLEYEPAKRFSIRQIRQHSWFRKKHPPAEAPVPIPPSPDTKDRWRSMTVVPYLEDLHGA
B2: full length MO25α (natural protein, human, UniProt Q9Y376 1-341, looked up)
chain: MPFPFGKSHKSPADIVKNLKESMAVLEKQDISDKKAEKATEEVSKNLVAMKEILYGTNEKEPQTEAVAQLAQELYNSGLLSTLVADLQLIDFEGKKDVAQIFNNILRRQIGTRTPTVEYICTQQNILFMLLKGYESPEIALNCGIMLRECIRHEPLAKIILWSEQFYDFFRYVEMSTFDIASDAFATFKDLLTRHKLLSAEFLEQHYDRFFSEYEKLLHSENYVTKRQSLKLLGELLLDRHNFTIMTKYISKPENLKLMMNLLRDKSRNIQFEAFHVFKVFVANPNKTQPILDILLKNQAKLIEFLSKFQNDRTEDEQFNDEKTYLVKQIRDLKRPAQQEA

Legend:
full length MO25α = biological target: B2; test: crystal structure
[1] = biological target: T1, pseudokinase domain of STRADα (residues …); test: crystal structure

Binder	binding result (full length MO25α)	binding result [1]
B1	binds	binds
B2	–	binds
